In patent publication US9717715B2, “Method of combination therapy using an anti-C-Met antibody” (SAMSUNG ELECTRONICS CO., LTD., dated 2017):

What was measured:
[1] = target: c-Met on human cancer cells (human, UniProt P08581); assay: cell-based or functional assay
human c-Met protein [2] = target: T1, human c-Met protein (human, UniProt P08581); assay: SPR (Biacore), antibody immobilised on CM5 chip, human c-Met protein injected at 0.39-100 nM
human c-Met protein [3] = target: T1, human c-Met protein; assay: SPR (Biacore), by the method of Example 8

| Binder | Akt phosphorylation (%) in Caki-1 cells, 5 ug/ml, 30 min [1] | relative cell viability (%) of MKN45 cells, 72 h [1] | Kd (human c-Met protein [2]) | koff (human c-Met protein [2]) | kon (human c-Met protein [2]) | Kd (human c-Met protein [3]) |
| --- | --- | --- | --- | --- | --- | --- |
| humanized antibody huAbF46 (H4-heavy chain and H4-light chain) (antibody, V domains shown) VH: EVQLVESGGGLVQPGGSLRLSCAASGFTFTDYYMSWVRQAPGKGLEWLGFIRNKANGYTTEYSASVKGRFTISRDNSKNTLYLQMNSLRAEDTAVYYCARDNWFAYWGQGTLVTVSS VL: DIQMTQSPSSLSASVGDRVTITCKSSQSLLASGNQNNYLAWHQQKPGKAPKMLIIWASTRVSGVPSRFSGSGSGTDFTLTISSLQPEDFATYYCQQSYSAPLTFGQGTKVEIKR | 29.1% | 77% | 2.19 nM | 0.000723 s⁻¹ | 329000 M⁻¹ s⁻¹ |  |
| huAbF46-H4-A1 (antibody, V domains shown) VH: EVQLVESGGGLVQPGGSLRLSCAASGFTFTDYYMSWVRQAPGKGLEWLGFIRNKANGYTTEYSASVKGRFTISRDNSKNTLYLQMNSLRAEDTAVYYCARDNWFAYWGQGTLVTVSS VL: DIQMTQSPSSLSASVGDRVTITCKSSQSLLASGNQNNYLAWHQQKPGKAPKMLIIWASTRVSGVPSRFSGSGSGTDFTLTISSLQPEDFATYYCQQSYSRPYTFGQGTKVEIKR | 15.3% | 74% | 0.06 nM | 4.53e-05 s⁻¹ | 739000 M⁻¹ s⁻¹ |  |
| L3-11Y (antibody, V domains shown) VH: EVQLVESGGGLVQPGGSLRLSCAASGFTFTDYYMSWVRQAPGKGLEWLGFIRNKANGYTTEYSASVKGRFTISRDNSKNTLYLQMNSLRAEDTAVYYCARDNWFAYWGQGTLVTVSS VL: DIQMTQSPSSLSASVGDRVTITCKSSQSLLAWGNQNNYLAWYQQKPGKAPKMLIIWASTRVSGVPSRFSGSGSGTDFTLTISSLQPEDFATYYCQQSYSRPYTFGQGTKVEIKR |  |  |  |  |  | < 0.01 nM |
| huAbF46-H4-A1 (U6-HC7) (antibody) heavy: not shown light: DIQMTQSPSSLSASVGDRVTITCKSSQSLLASGNQNNYLAWYQQKPGKAPKMLIIWASTRVSGVPSRFSGSGSGTDFTLTISSLQPEDFATYYCQQSYSRPYTFGQGTKVEIKRTVAAPSVFIFPPSDEQLKSGTASVVCLLNNFYPREAKVQWKVDNALQSGNSQESVTEQDSKDSTYSLSSTLTLSKADYEKHKVYACEVTHQGLSSPVTKSFNRGEC | ≤ 18% | ~60% |  |  |  |  |
| huAbF46-H4-A1 (IgG2 Fc) (antibody) heavy: EVQLVESGGGLVQPGGSLRLSCAASGFTFTDYYMSWVRQAPGKGLEWLGFIRNKANGYTTEYSASVKGRFTISRDNSKNTLYLQMNSLRAEDTAVYYCARDNWFAYWGQGTLVTVSSASTKGPSVFPLAPCSRSTSESTAALGCLVKDYFPEPVTVSWNSGALTSGVHTFPAVLQSSGLYSLSSVVTVPSSNFGTQTYTCNVDHKPSNTKVDKTVERKCCVECPPCPAPPVAGPSVFLFPPKPKDTLMISRTPEVTCVVVDVSHEDPEVQFNWYVDGVEVHNAKTKPREEQFNSTFRVVSVLTVVHQDWLNGKEYKCKVSNKGLPAPIEKTISKTKGQPREPQVYTLPPSREEMTKNQVSLTCLVKGFYPSDIAVEWESNGQPENNYKTTPPMLDSDGSFFLYSKLTVDKSRWQQGNVFSCSVMHEALHNHYTQKSLSLSPGK light: DIQMTQSPSSLSASVGDRVTITCKSSQSLLASGNQNNYLAWYQQKPGKAPKMLIIWASTRVSGVPSRFSGSGSGTDFTLTISSLQPEDFATYYCQQSYSRPYTFGQGTKVEIKRTVAAPSVFIFPPSDEQLKSGTASVVCLLNNFYPREAKVQWKVDNALQSGNSQESVTEQDSKDSTYSLSSTLTLSKADYEKHKVYACEVTHQGLSSPVTKSFNRGEC | ≤ 18% | ~60% |  |  |  |  |
| huAbF46-H4-A1 (IgG2 hinge) (antibody) heavy: not shown light: DIQMTQSPSSLSASVGDRVTITCKSSQSLLASGNQNNYLAWYQQKPGKAPKMLIIWASTRVSGVPSRFSGSGSGTDFTLTISSLQPEDFATYYCQQSYSRPYTFGQGTKVEIKRTVAAPSVFIFPPSDEQLKSGTASVVCLLNNFYPREAKVQWKVDNALQSGNSQESVTEQDSKDSTYSLSSTLTLSKADYEKHKVYACEVTHQGLSSPVTKSFNRGEC | ≤ 18% | ~60% |  |  |  |  |
